Assay results as given in patent US20090004214A1 (COMMISSARIAT A L ENERGIE ATOMIQUE, published 2009).
No end group written: not given here.

B1: survivin peptide 84-98 (peptide)
peptide: CAFLSVKKQFEELTL
notes: synthetic 15-mer
B2: survivin peptide 4-18 (peptide)
peptide: PTLPPAWQPFLKDHR
notes: synthetic 15-mer
B3: survivin peptide 72-86 (peptide)
peptide: DPIEEHKKHSSGCAF
notes: synthetic 15-mer
B4: survivin peptide 122-136 (peptide)
peptide: KEFEETAKKVRRAIE
notes: synthetic 15-mer
B5: survivin peptide 52-66 (peptide)
peptide: PDLAQCFFCFKELEG
notes: synthetic 15-mer
B6: survivin peptide 99-113 (peptide)
peptide: GEFLKLDRERAKNKI
notes: synthetic 15-mer
B7: survivin peptide 19-33 (peptide)
peptide: ISTFKNWPFLEGCAC
notes: synthetic 15-mer
B8: survivin peptide 8-22 (peptide)
peptide: PAWQPFLKDHRISTF
notes: synthetic 15-mer
B9: survivin peptide 93-107 (peptide)
peptide: FEELTLGEFLKLDRE
notes: synthetic 15-mer
B10: survivin peptide 17-31 (peptide)
peptide: HRISTFKNWPFLEGC
notes: synthetic 15-mer
B11: survivin peptide 96-110 (peptide)
peptide: LTLGEFLKLDRERAK
notes: synthetic 15-mer
B12: survivin peptide 11-25 (peptide)
peptide: QPFLKDHRISTFKNW
notes: synthetic 15-mer
B13: B1 21-36 peptide (nonbiotinylated) (peptide)
peptide: TERVRLVTRHIYNREE
modifications: not fully specified

These binders were tested against T1, HLA-DR13 molecule (DRB1*1301) (human) (assay: competitive ELISA, tracer B1 21-36).
T1 construct: HLA class II heterodimer

| Binder | IC50 [µM] |
| --- | --- |
| B1 | 0.845 |
| B2 | 40 |
| B3 | 11 |
| B4 | 0.995 |
| B5 | 23 |
| B6 | 9.17 |
| B7 | 9.5 |
| B8 | 2.31 |
| B9 | 7.8 |
| B10 | 0.735 |
| B11 | 0.302 |
| B12 | 2.41 |

Target: T2, HLA-DR13 molecule (DRB1*1301) (human)
T2 chain 1: not shown
T2 chain 2: not shown
Test: competitive ELISA, nonbiotinylated peptide vs its biotinylated tracer

| Binder | IC50 [µM] |
| --- | --- |
| B13 | 0.8 |

Each binder was assayed against T3, HLA-DR7 molecule (DRB1*0701) (human) (assay: competitive ELISA, tracer YKL).
T3 construct: HLA class II heterodimer

| Binder | IC50 [µM] |
| --- | --- |
| B1 | 0.179 |
| B4 | 20 |
| B5 | 6.67 |
| B6 | 6.46 |
| B7 | 0.748 |
| B8 | 9.39 |
| B9 | 2.79 |
| B10 | 0.018 |
| B11 | 5.64 |
| B12 | 8 |

The binders below were run against T4, HLA-DR3 molecule (DRB1*0301) (human) (assay: competitive ELISA, tracer MT 2-16).
T4 construct: HLA class II heterodimer

| Binder | IC50 [µM] |
| --- | --- |
| B1 | 2.57 |
| B4 | 5.81 |
| B5 | 11.8 |
| B6 | 4.67 |
| B8 | 16 |
| B11 | 5.48 |
| B12 | 65 |

Target: T2, HLA-DR13 molecule (DRB1*1301) (human)
Test: competitive ELISA, tracer B1 21-36

| Binder | IC50 [µM] |
| --- | --- |
| B13 | 0.609 |

The binders below were run against T5, HLA-DR1 molecule (DRB1*0101) (human) (assay: competitive ELISA, tracer HA 306-318).
T5 construct: HLA class II heterodimer

| Binder | IC50 [µM] |
| --- | --- |
| B1 | 2.83 |
| B2 | 45 |
| B3 | 95 |
| B4 | 5.56 |
| B5 | 4.1 |
| B6 | 0.048 |
| B7 | 0.01 |
| B8 | 6.57 |
| B9 | 0.128 |
| B10 | 0.019 |
| B11 | 0.018 |
| B12 | 6 |

These binders were tested against T6, HLA-DR11 molecule (DRB1*1101) (human) (assay: competitive ELISA, tracer HA 306-318).
T6 construct: HLA class II heterodimer

| Binder | IC50 [µM] |
| --- | --- |
| B1 | 0.01 |
| B4 | 0.31 |
| B5 | 0.092 |
| B6 | 0.04 |
| B7 | 0.147 |
| B9 | 0.548 |
| B10 | 0.247 |
| B11 | 0.007 |
| B12 | 0.329 |

Each binder was assayed against T7, HLA-DRB5 molecule (DRB5*0101) (human) (assay: competitive ELISA, tracer HA 306-318).
T7 construct: HLA class II heterodimer

| Binder | IC50 [µM] |
| --- | --- |
| B1 | 1.77 |
| B2 | 5.48 |
| B3 | 6.2 |
| B4 | 0.447 |
| B5 | 5.35 |
| B6 | 0.022 |
| B7 | 3.78 |
| B8 | 2.19 |
| B9 | 0.529 |
| B10 | 0.302 |
| B11 | 0.103 |
| B12 | 2.26 |

Each binder was assayed against T8, HLA-DR4 molecule (DRB1*0401) (human) (assay: competitive ELISA, tracer HA 306-318).
T8 construct: HLA class II heterodimer

| Binder | IC50 [µM] |
| --- | --- |
| B1 | 19 |
| B5 | 22 |
| B6 | 2.13 |
| B7 | 0.615 |
| B8 | 46 |
| B9 | 5.5 |
| B10 | 9.2 |
| B11 | 1.67 |
| B12 | 45 |

These binders were tested against T9, HLA-DR15 molecule (DRB1*1501) (human) (assay: competitive ELISA, tracer A3 152-166).
T9 construct: HLA class II heterodimer

| Binder | IC50 [µM] |
| --- | --- |
| B1 | 0.574 |
| B4 | 1.2 |
| B5 | 2.25 |
| B6 | 1.2 |
| B7 | 0.081 |
| B8 | 5.2 |
| B9 | 0.612 |
| B10 | 0.003 |
| B11 | 0.49 |
| B12 | 0.022 |

Each binder was assayed against T10, HLA-DRB4 molecule (DRB4*0101) (human) (assay: competitive ELISA, tracer E2/E168).
T10 construct: HLA class II heterodimer

| Binder | IC50 [µM] |
| --- | --- |
| B1 | 1.33 |
| B6 | 22 |
| B7 | 3.12 |
| B8 | 29 |
| B10 | 7.5 |
| B11 | 3.6 |
| B12 | 75 |

What follows are binders tested against T11, HLA-DRB3 molecule (DRB3*0101) (human) (assay: competitive ELISA, tracer LOL 191-210).
T11 construct: HLA class II heterodimer

| Binder | IC50 [µM] |
| --- | --- |
| B1 | 11.8 |
| B5 | 12.6 |
| B8 | 8.72 |
| B9 | 45 |
| B12 | 3.67 |

These binders were tested against T12, HLA-DP402 molecule (DPB1*0402) (human, UniProt P20036 29-222, limits assumed) (assay: competitive ELISA, tracer Oxy 271-287).
T12 construct: HLA class II heterodimer; also called DP*0402

| Binder | IC50 [µM] |
| --- | --- |
| B1 | 0.113 |
| B2 | 3.59 |
| B5 | 4.58 |
| B8 | 10.5 |
| B9 | 0.067 |
| B10 | 0.029 |
| B11 | 0.62 |
| B12 | 25 |

The binders below were run against T13, HLA-DP401 molecule (DPB1*0401) (human, UniProt P20036 29-222, limits assumed) (assay: competitive ELISA, tracer Oxy 271-287).
T13 construct: HLA class II heterodimer; also called DP*0401

| Binder | IC50 [µM] |
| --- | --- |
| B1 | 0.167 |
| B2 | 9 |
| B6 | 40 |
| B7 | 0.032 |
| B8 | 21 |
| B9 | 0.02 |
| B10 | 0.04 |
| B11 | 2.92 |
| B12 | 33 |
